This is an account of results in patent publication US20100239579A1.

This test deals with human SIRPα (signal regulatory protein alpha), full-length (human) (UniProt P78324). In words: cell-based or functional assay.
Chain of human SIRPα (signal regulatory protein alpha), full-length (human) (P78324 31-504): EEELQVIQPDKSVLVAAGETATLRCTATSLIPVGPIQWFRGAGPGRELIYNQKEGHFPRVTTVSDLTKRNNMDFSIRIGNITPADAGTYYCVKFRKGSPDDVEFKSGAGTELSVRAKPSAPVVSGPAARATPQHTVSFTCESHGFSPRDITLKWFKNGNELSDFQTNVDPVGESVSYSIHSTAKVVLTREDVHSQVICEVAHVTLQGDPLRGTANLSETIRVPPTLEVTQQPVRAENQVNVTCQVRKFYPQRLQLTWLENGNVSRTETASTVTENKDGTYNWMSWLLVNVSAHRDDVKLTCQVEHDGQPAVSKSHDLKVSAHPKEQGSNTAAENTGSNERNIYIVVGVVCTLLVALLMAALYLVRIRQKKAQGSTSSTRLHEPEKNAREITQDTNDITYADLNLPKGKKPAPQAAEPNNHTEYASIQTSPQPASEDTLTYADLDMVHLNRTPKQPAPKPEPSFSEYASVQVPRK

On to “hCD47-hFc (human CD47 extracellular Ig-V domain fused to the Fc region of human IgG1), Example 8 (from UniProt Q08722 19-142) (Fc fusion)”, for which the inhibition of FSL-1 mediated TNF-α production of human DCs by hCD47-hFc immobilized on anti-human Fc coated plates turned out to be 78 ng/mL and the inhibition of SAC-induced IL-23 secretion in human DCs is 11 ng/mL.
